Measurements reported in paper PMC7341804.

Target: Arabinosyltransferase B (EmbB) from Mycobacterium smegmatis (Mycobacterium smegmatis) (UniProt Q50395)
Assay: native MS; EmbB in 0.2 M ammonium acetate pH 6.8 with 0.01% C12E8 detergent; Q-Exactive HF Orbitrap UHMR, HCD 150 V, capillary 300 °C

stoichiometry N: 2
Substance: Arabinosyltransferase B (EmbB) from Mycobacterium smegmatis (from UniProt Q50395 1-1082) (enzyme)
